From PMC8790524, “Probing the binding of interleukin-23 to individual receptor components and the IL-23 heteromeric receptor complex in living cells using NanoBRET” (Cell Chemical Biology, 2022) come the findings set out here.

In experiment [1] the target is T1, NL-IL23R co-expressed with untagged IL12Rβ1 (heteromeric IL-23 receptor complex) (UniProt Q5VWK5 24-629; P42701-1 24-662). Briefly: cell-based or functional assay.
Experiment [2] has as its target T2, NL-IL23R co-expressed with HaloTag fused IL12Rβ1 (UniProt Q5VWK5 24-629; P42701 24-662). Kind of experiment: cell-based or functional assay.
In experiment [3] the target is T3, NL-IL23R co-expressed with SNAP-tag fused IL12Rβ1 (UniProt Q5VWK5 24-629; P42701 24-662). Kind of experiment: cell-based or functional assay.
In experiment [4] the target is NL-IL12Rβ1 co-expressed with HaloTag-IL23R (UniProt P42701 24-662; Q5VWK5 24-629, HaloTag NanoBRET 618 ligand bound to the HaloTag). Briefly: cell-based or functional assay.
Experiment [5] deals with wild-type IL23R heteromer (IL23R and IL12Rβ1) (UniProt Q5VWK5-1 24-629; P42701-1 24-662). Briefly: cell-based or functional assay.
For experiment [6], the target named is T1, NL-IL23R co-expressed with untagged …. Kind of experiment: FRET or BRET; NanoBRET competition on living HEK293T cells co-transfected with NL-IL23R and IL12Rβ1: titration of unlabelled IL-23 against several concentrations of IL23-TMR; HBSS with 1 mg/ml BSA, 1 h; Ki by Cheng-Prusoff or by linear regression of IC50 against IL23-TMR concentration. The settings on record: one partner purified. Background: In BRET a luciferase serves as donor, and the signal depends on an acceptor being close.

Experiment [7] has as its target T4, NanoLuciferase-tagged full-length IL12Rβ1 (UniProt P42701 24-662).
T4 construct: IL-12 receptor subunit β1 (IL12Rβ1), full-length, synthesised without its endogenous signal peptide; Gly-Ser-Arg linker between NanoLuciferase and its N terminus; Open reading frame: N-terminal IL-6 secretion signal, NanoLuciferase, Gly-Ser-Arg, IL12Rβ1; in a pNLF vector; also called NL-IL12Rβ1; IL6SS-NL-IL12Rβ1; source: HEK293T, transiently transfected, on living cells; not shown: …
Briefly: FRET or BRET; NanoBRET saturation binding of IL23-TMR to living HEK293T cells transiently expressing the NL-fused receptor (alone or 1:1 with the partner receptor plasmid); HBSS with 1 mg/ml BSA, 1 h, 37.5°C; non-specific binding with an excess of unlabelled IL-23 (50 nM to 1 μM). The settings on record: one partner purified.

The target of experiment [8] is T1, NL-IL23R co-expressed with untagged …. The experiment is described as above. To be noted: one partner purified.
Experiment [9] addresses T2, NL-IL23R co-expressed with HaloTag …. The experiment is described as above. The settings on record: one partner purified.
Experiment [10] addresses T3, NL-IL23R co-expressed with SNAP-tag …. Described as above. The settings on record: one partner purified.
The target of experiment [11] is T5, NanoLuciferase-tagged full-length IL23R (UniProt Q5VWK5 24-629).
T5 construct: IL-23 receptor (IL23R), full-length, synthesised without its endogenous signal peptide; Gly-Ser-Arg linker between NanoLuciferase and its N terminus; Open reading frame: N-terminal IL-6 secretion signal, NanoLuciferase, Gly-Ser-Arg, IL23R; in a pNLF vector; also called NL-IL23R; IL6SS-NL-IL23R; source: HEK293T, transiently transfected, on living cells; not shown: NanoLuciferase, N-terminal, kept
T5 sequence (looked up): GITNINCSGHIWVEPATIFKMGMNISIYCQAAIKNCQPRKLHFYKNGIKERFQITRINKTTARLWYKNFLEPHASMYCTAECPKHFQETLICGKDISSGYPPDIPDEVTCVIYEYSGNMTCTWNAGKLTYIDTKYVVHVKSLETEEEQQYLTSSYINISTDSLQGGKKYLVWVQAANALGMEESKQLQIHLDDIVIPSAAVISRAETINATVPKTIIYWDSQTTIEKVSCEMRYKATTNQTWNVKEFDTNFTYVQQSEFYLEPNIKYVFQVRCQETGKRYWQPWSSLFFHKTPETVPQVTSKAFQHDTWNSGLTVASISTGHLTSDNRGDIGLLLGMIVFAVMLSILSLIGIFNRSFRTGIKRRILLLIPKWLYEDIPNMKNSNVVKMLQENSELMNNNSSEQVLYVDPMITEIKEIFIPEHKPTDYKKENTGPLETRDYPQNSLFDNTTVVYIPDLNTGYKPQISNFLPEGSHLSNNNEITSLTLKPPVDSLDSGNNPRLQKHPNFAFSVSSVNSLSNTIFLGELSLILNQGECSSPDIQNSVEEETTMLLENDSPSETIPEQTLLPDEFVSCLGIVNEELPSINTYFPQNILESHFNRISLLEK
The description is as above. To be noted: one partner purified.

The target of experiment [12] is T6, NL-IL12Rβ1 co-expressed with unlabeled IL23R (UniProt P42701 24-662; Q5VWK5-1 24-629).
T6 construct: IL-12 receptor subunit β1 (IL12Rβ1), full-length, synthesised without its endogenous signal peptide; Gly-Ser-Arg linker between NanoLuciferase and its N terminus; IL-23 receptor (IL23R) from the Origene IL23R-MYCDDK expression plasmid; called unlabeled or untagged in the results; also called NL-IL12Rβ1:IL23R complex; NL-IL12Rβ1 + IL23R; source: HEK293T, transiently co-transfected (1:1 or 1:10 …)
The description is as above. To be noted: one partner purified.

The target of experiment [13] is T6, NL-IL12Rβ1 co-expressed with unlabeled …. Kind of experiment: FRET or BRET; NanoBRET saturation binding of IL23-TMR to living HEK293T cells transfected with NL-IL12Rβ1 and IL23R at a 1:10 ratio (2.2 μg total DNA per well); HBSS with 1 mg/ml BSA, 1 h; non-specific binding with 100 nM unlabelled IL-23. To be noted: one partner purified.

Values joined by “and” are separate entries in the source; they are usually repeats but may differ in a detail not shown here. Equal entries are not always repeated.

B1: Recombinant IL-23 protein (unlabeled) (ligand)
chain 1: RAVPGGSSPAWTQCQQLSQKLCTLAWSAHPLVGHMDLREEGDEETTNDVPHIQCGDGCDPQGLRDNSQFCLQRIHQGLIFYEKLLGSDIFTGEPSLLPDSPVGQLHASLLGLSQLLQPEGHHWETQQIPSLSPSQPWQRLLLRFKILRSLQAFVAVAARVFAHGAATLSP
chain 2: IWELKKDVYVVELDWYPDAPGEMVVLTCDTPEEDGITWTLDQSSEVLGSGKTLTIQVKEFGDAGQYTCHKGGEVLSHSLLLLHKKEDGIWSTDILKDQKEPKNKTFLRCEAKNYSGRFTCWWLTTISTDLTFSVKSSRGSSDPQGVTCGAATLSAERVRGDNKEYEYSVECQEDSACPAAEESLPIEVMVDAVHKLKYENYTSSFFIRDIIKPDPPKNLQLKPLKNSRQVEVSWEYPDTWSTPHSYFSLTFCVQVQGKSKREKKDRVFTDKTSATVICRKNASISVRAQDRYYSSSWSEWASVPCS
modifications: several mass peaks differing by 162 Da, most likely N-linked glycosylation
notes: IL23p19, the alpha subunit of IL-23, disulfide-linked to IL12p40; IL12p40, the beta subunit of IL-23, disulfide-linked to IL23p19; also called interleukin-23; unlabeled IL-23; source: HEK293-F, co-transduced with BacMam viruses (p19-His and p40), purified from the supernatant (Ni-Sepharose); gift of GlaxoSmithKline
In the case of B1, the “potency (EC50) of IL-23 for STAT3 phosphorylation (Tyr705, AlphaLISA SureFire Ultra), HEK293T cells, 30 min” value (shortened to “potency (EC50)”) in experiment [1] was found to be 0.154 nM. For the same molecule, in experiment [2], the “EC50 of IL-23 for the decrease in intra-receptor BRET between NL-IL23R and HaloTag-IL12Rβ1 (HT618)” value stood at 0.0436 nM; the “potency (EC50)” value was 0.199 nM. Also, in experiment [3], the “EC50 of IL-23 for the increase in intra-receptor BRET between NL-IL23R and SNAP-IL12Rβ1 (AF488)” value turned out to be 0.0429 nM; the “potency (EC50)” value came to 0.15 nM. The “EC50 of IL-23 for the increase in intra-receptor BRET between NL-IL12Rβ1 and HaloTag-IL23R” value in [4] came to 0.457 nM. In addition, the “EC50 of IL-23 for STAT3 phosphorylation (Tyr705, AlphaLISA SureFire Ultra), HEK293T cells, 30 min” value in experiment [5] is 0.269 nM. Besides, the Ki in experiment [6] is 0.0316 nM and 0.0272 nM.

B2: TAMRA-conjugated IL-23 (ligand)
chain 1: RAVPGGSSPAWTQCQQLSQKLCTLAWSAHPLVGHMDLREEGDEETTNDVPHIQCGDGCDPQGLRDNSQFCLQRIHQGLIFYEKLLGSDIFTGEPSLLPDSPVGQLHASLLGLSQLLQPEGHHWETQQIPSLSPSQPWQRLLLRFKILRSLQAFVAVAARVFAHGAATLSP
chain 2: IWELKKDVYVVELDWYPDAPGEMVVLTCDTPEEDGITWTLDQSSEVLGSGKTLTIQVKEFGDAGQYTCHKGGEVLSHSLLLLHKKEDGIWSTDILKDQKEPKNKTFLRCEAKNYSGRFTCWWLTTISTDLTFSVKSSRGSSDPQGVTCGAATLSAERVRGDNKEYEYSVECQEDSACPAAEESLPIEVMVDAVHKLKYENYTSSFFIRDIIKPDPPKNLQLKPLKNSRQVEVSWEYPDTWSTPHSYFSLTFCVQVQGKSKREKKDRVFTDKTSATVICRKNASISVRAQDRYYSSSWSEWASVPCS
modifications: TAMRA (5(6)-carboxytetramethylrhodamine, coupled as NHS ester); 64.9% of TAMRA labels were located on IL23p19; sites not stated | TAMRA (labelled to a lesser extent than IL23p19; sites not stated); several mass peaks differing by 162 Da, most likely N-linked glycosylation
notes: IL23p19, the alpha subunit of IL-23, disulfide-linked to IL12p40; IL12p40, the beta subunit of IL-23, disulfide-linked to IL23p19; A mixture: by LC-MS 52.3% unlabeled, 29.5% single and 18.2% double labeled; by FCS/PCH 39.6% mono-labeled, 11.9% multi-labeled, 48.5% unlabeled; also called IL23-TMR; TAMRA-tagged IL-23; source: HEK293-F, co-transduced with BacMam viruses (p19-His and p40), purified …
With B2, the Kd in experiment [7] stood at 30.1 nM; in experiment [8], 0.027 nM; in experiment [9] it was 0.179 ± 0.008 nM; in [10] it was 0.454 ± 0.043 nM; in experiment [11], 222 nM; in experiment [12], 46.7 nM. The Kd in experiment [13] came out at 0.647 nM; in experiment [6], 0.0351 nM. Besides, the “KD of the high-affinity site (two-site fit)” value in [12] worked out at 0.028 nM. Further, in [12], the “KD of the low-affinity site (two-site fit)” value was determined as 72 nM.

A word on the Ki: it is a measure of affinity in units of concentration, obtained from inhibition or displacement. A higher Ki goes with weaker binding. As a reminder, the Kd is the equilibrium constant for the complex coming apart.
